Source: patent publication US20050065076

Tested on: C100Flag recombinant protein (Met + APP695 C-terminal fragment + Flag)
Sequence (chain, as listed by the source): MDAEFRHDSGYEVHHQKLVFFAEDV

Substance: γ3 protease in a membrane preparation from HeLa S3 cells
- γ-secretase activity (cleavage of the substrate, Aβ products detected by ECL): significant γ-secretase activity remains at pH 6.0 (the pH optimum for γ-secretase activity associated with γ3 protease)
